Assay results reported in patent publication US20190233493A1 (Sanofi, published 2019).
*1 amine or outer side, *2 acyl side, *3 side chain or, on linkers, in order; H or OH if unused. Side-chain parts run from the residue outwards. [ ]: non-standard residue; d: D form. The star is where a group is joined. PEG12 = NCCOCCOCCOCCOCCOCCOCCOCCOCCOCCOCCOCCOCCC(=O)O; γGlu = O=C(O)[C@H](CCC(=O)[*:2])N[*:1]; 1Nal = N[C@@H](Cc1cccc2ccccc12)C(=O)O; Stearoyl = CCCCCCCCCCCCCCCCCC(=O)*; Palmitoyl = CCCCCCCCCCCCCCCC(=O)*; Nle = CCCC[C@H](N)C(=O)O; Aib = CC(C)(N)C(=O)O

T1: RXFP1 receptor (UniProt Q9HBX9 1-757, limits assumed)
T1 sequence (looked up): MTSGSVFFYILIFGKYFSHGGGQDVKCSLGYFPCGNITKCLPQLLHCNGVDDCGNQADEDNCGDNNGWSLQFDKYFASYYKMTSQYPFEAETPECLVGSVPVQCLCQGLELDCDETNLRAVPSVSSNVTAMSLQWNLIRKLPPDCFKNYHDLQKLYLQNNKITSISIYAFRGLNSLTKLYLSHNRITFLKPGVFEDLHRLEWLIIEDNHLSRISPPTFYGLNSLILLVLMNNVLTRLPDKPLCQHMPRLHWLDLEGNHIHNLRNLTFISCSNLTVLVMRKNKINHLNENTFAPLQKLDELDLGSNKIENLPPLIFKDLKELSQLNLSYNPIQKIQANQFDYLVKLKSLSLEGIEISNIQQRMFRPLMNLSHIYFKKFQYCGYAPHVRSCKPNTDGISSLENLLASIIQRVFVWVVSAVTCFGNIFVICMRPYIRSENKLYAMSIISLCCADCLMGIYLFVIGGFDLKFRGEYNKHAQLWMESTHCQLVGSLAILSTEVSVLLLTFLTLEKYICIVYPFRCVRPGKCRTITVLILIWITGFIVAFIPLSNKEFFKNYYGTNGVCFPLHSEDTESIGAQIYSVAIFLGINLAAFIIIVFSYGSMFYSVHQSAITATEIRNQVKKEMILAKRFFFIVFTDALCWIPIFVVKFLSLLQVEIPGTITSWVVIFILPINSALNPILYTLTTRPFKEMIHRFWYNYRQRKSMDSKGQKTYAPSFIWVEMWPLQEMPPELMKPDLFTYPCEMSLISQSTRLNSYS

B1: peptide of SEQ ID NO: 31 (peptide)
peptide: Ac-LEGREKVRAQI[Aib][Aib]EG[Nle]STWS[Aib]RKK[PEG12]K([γGlu-γGlu-γGlu-Stearoyl])-NH2
SMILES: CCCCCCCCCCCCCCCCCC(=O)N[C@@H](CCC(=O)N[C@@H](CCC(=O)N[C@@H](CCC(=O)NCCCC[C@H](NC(=O)CCOCCOCCOCCOCCOCCOCCOCCOCCOCCOCCOCCOCCNC(=O)[C@H](CCCCN)NC(=O)[C@H](CCCCN)NC(=O)[C@H](CCCNC(=N)N)NC(=O)C(C)(C)NC(=O)[C@H](CO)NC(=O)[C@H](Cc1c[nH]c2ccccc12)NC(=O)[C@@H](NC(=O)[C@H](CO)NC(=O)[C@H](CCCC)NC(=O)CNC(=O)[C@H](CCC(=O)O)NC(=O)C(C)(C)NC(=O)C(C)(C)NC(=O)[C@@H](NC(=O)[C@H](CCC(N)=O)NC(=O)[C@H](C)NC(=O)[C@H](CCCNC(=N)N)NC(=O)[C@@H](NC(=O)[C@H](CCCCN)NC(=O)[C@H](CCC(=O)O)NC(=O)[C@H](CCCNC(=N)N)NC(=O)CNC(=O)[C@H](CCC(=O)O)NC(=O)[C@H](CC(C)C)NC(C)=O)C(C)C)[C@@H](C)CC)[C@@H](C)O)C(N)=O)C(=O)O)C(=O)O)C(=O)O
B2: peptide of SEQ ID NO: 30 (peptide)
peptide: Ac-LEGREKVRAQI[Aib][Aib]EG[Nle]STWS[Aib]RK[PEG12]K([γGlu-γGlu-γGlu-Stearoyl])-NH2
SMILES: CCCCCCCCCCCCCCCCCC(=O)N[C@@H](CCC(=O)N[C@@H](CCC(=O)N[C@@H](CCC(=O)NCCCC[C@H](NC(=O)CCOCCOCCOCCOCCOCCOCCOCCOCCOCCOCCOCCOCCNC(=O)[C@H](CCCCN)NC(=O)[C@H](CCCNC(=N)N)NC(=O)C(C)(C)NC(=O)[C@H](CO)NC(=O)[C@H](Cc1c[nH]c2ccccc12)NC(=O)[C@@H](NC(=O)[C@H](CO)NC(=O)[C@H](CCCC)NC(=O)CNC(=O)[C@H](CCC(=O)O)NC(=O)C(C)(C)NC(=O)C(C)(C)NC(=O)[C@@H](NC(=O)[C@H](CCC(N)=O)NC(=O)[C@H](C)NC(=O)[C@H](CCCNC(=N)N)NC(=O)[C@@H](NC(=O)[C@H](CCCCN)NC(=O)[C@H](CCC(=O)O)NC(=O)[C@H](CCCNC(=N)N)NC(=O)CNC(=O)[C@H](CCC(=O)O)NC(=O)[C@H](CC(C)C)NC(C)=O)C(C)C)[C@@H](C)CC)[C@@H](C)O)C(N)=O)C(=O)O)C(=O)O)C(=O)O
B3: peptide of SEQ ID NO: 33 (peptide)
peptide: Ac-LEGREKVRAK(Ac)I[Aib][Aib]EG[Nle]STWS[Aib]RKK(Ac)[PEG12]K([γGlu-γGlu-γGlu-Stearoyl])-NH2
SMILES: CCCCCCCCCCCCCCCCCC(=O)N[C@@H](CCC(=O)N[C@@H](CCC(=O)N[C@@H](CCC(=O)NCCCC[C@H](NC(=O)CCOCCOCCOCCOCCOCCOCCOCCOCCOCCOCCOCCOCCNC(=O)[C@H](CCCCNC(C)=O)NC(=O)[C@H](CCCCN)NC(=O)[C@H](CCCNC(=N)N)NC(=O)C(C)(C)NC(=O)[C@H](CO)NC(=O)[C@H](Cc1c[nH]c2ccccc12)NC(=O)[C@@H](NC(=O)[C@H](CO)NC(=O)[C@H](CCCC)NC(=O)CNC(=O)[C@H](CCC(=O)O)NC(=O)C(C)(C)NC(=O)C(C)(C)NC(=O)[C@@H](NC(=O)[C@H](CCCCNC(C)=O)NC(=O)[C@H](C)NC(=O)[C@H](CCCNC(=N)N)NC(=O)[C@@H](NC(=O)[C@H](CCCCN)NC(=O)[C@H](CCC(=O)O)NC(=O)[C@H](CCCNC(=N)N)NC(=O)CNC(=O)[C@H](CCC(=O)O)NC(=O)[C@H](CC(C)C)NC(C)=O)C(C)C)[C@@H](C)CC)[C@@H](C)O)C(N)=O)C(=O)O)C(=O)O)C(=O)O
B4: peptide of SEQ ID NO: 32 (peptide)
peptide: Ac-LEGREKVRAK(Ac)I[Aib][Aib]EG[Nle]STWS[Aib]RKK[PEG12]K([γGlu-γGlu-γGlu-Stearoyl])-NH2
SMILES: CCCCCCCCCCCCCCCCCC(=O)N[C@@H](CCC(=O)N[C@@H](CCC(=O)N[C@@H](CCC(=O)NCCCC[C@H](NC(=O)CCOCCOCCOCCOCCOCCOCCOCCOCCOCCOCCOCCOCCNC(=O)[C@H](CCCCN)NC(=O)[C@H](CCCCN)NC(=O)[C@H](CCCNC(=N)N)NC(=O)C(C)(C)NC(=O)[C@H](CO)NC(=O)[C@H](Cc1c[nH]c2ccccc12)NC(=O)[C@@H](NC(=O)[C@H](CO)NC(=O)[C@H](CCCC)NC(=O)CNC(=O)[C@H](CCC(=O)O)NC(=O)C(C)(C)NC(=O)C(C)(C)NC(=O)[C@@H](NC(=O)[C@H](CCCCNC(C)=O)NC(=O)[C@H](C)NC(=O)[C@H](CCCNC(=N)N)NC(=O)[C@@H](NC(=O)[C@H](CCCCN)NC(=O)[C@H](CCC(=O)O)NC(=O)[C@H](CCCNC(=N)N)NC(=O)CNC(=O)[C@H](CCC(=O)O)NC(=O)[C@H](CC(C)C)NC(C)=O)C(C)C)[C@@H](C)CC)[C@@H](C)O)C(N)=O)C(=O)O)C(=O)O)C(=O)O
B5: peptide of SEQ ID NO: 29 (peptide)
peptide: Ac-LEGREKVRAK(Ac)I[Aib][Aib]EG[Nle]ST[1Nal]S[Aib]RK[PEG12]K([γGlu-γGlu-γGlu-Palmitoyl])-NH2
SMILES: CCCCCCCCCCCCCCCC(=O)N[C@@H](CCC(=O)N[C@@H](CCC(=O)N[C@@H](CCC(=O)NCCCC[C@H](NC(=O)CCOCCOCCOCCOCCOCCOCCOCCOCCOCCOCCOCCOCCNC(=O)[C@H](CCCCN)NC(=O)[C@H](CCCNC(=N)N)NC(=O)C(C)(C)NC(=O)[C@H](CO)NC(=O)[C@H](Cc1cccc2ccccc12)NC(=O)[C@@H](NC(=O)[C@H](CO)NC(=O)[C@H](CCCC)NC(=O)CNC(=O)[C@H](CCC(=O)O)NC(=O)C(C)(C)NC(=O)C(C)(C)NC(=O)[C@@H](NC(=O)[C@H](CCCCNC(C)=O)NC(=O)[C@H](C)NC(=O)[C@H](CCCNC(=N)N)NC(=O)[C@@H](NC(=O)[C@H](CCCCN)NC(=O)[C@H](CCC(=O)O)NC(=O)[C@H](CCCNC(=N)N)NC(=O)CNC(=O)[C@H](CCC(=O)O)NC(=O)[C@H](CC(C)C)NC(C)=O)C(C)C)[C@@H](C)CC)[C@@H](C)O)C(N)=O)C(=O)O)C(=O)O)C(=O)O
B6: peptide of SEQ ID NO: 28 (peptide)
peptide: Ac-LEGREKVR[Aib]QI[Aib][Aib]EG[Nle]STWS[Aib]RKK(Ac)[PEG12]K([γGlu-γGlu-γGlu-Palmitoyl])-NH2
SMILES: CCCCCCCCCCCCCCCC(=O)N[C@@H](CCC(=O)N[C@@H](CCC(=O)N[C@@H](CCC(=O)NCCCC[C@H](NC(=O)CCOCCOCCOCCOCCOCCOCCOCCOCCOCCOCCOCCOCCNC(=O)[C@H](CCCCNC(C)=O)NC(=O)[C@H](CCCCN)NC(=O)[C@H](CCCNC(=N)N)NC(=O)C(C)(C)NC(=O)[C@H](CO)NC(=O)[C@H](Cc1c[nH]c2ccccc12)NC(=O)[C@@H](NC(=O)[C@H](CO)NC(=O)[C@H](CCCC)NC(=O)CNC(=O)[C@H](CCC(=O)O)NC(=O)C(C)(C)NC(=O)C(C)(C)NC(=O)[C@@H](NC(=O)[C@H](CCC(N)=O)NC(=O)C(C)(C)NC(=O)[C@H](CCCNC(=N)N)NC(=O)[C@@H](NC(=O)[C@H](CCCCN)NC(=O)[C@H](CCC(=O)O)NC(=O)[C@H](CCCNC(=N)N)NC(=O)CNC(=O)[C@H](CCC(=O)O)NC(=O)[C@H](CC(C)C)NC(C)=O)C(C)C)[C@@H](C)CC)[C@@H](C)O)C(N)=O)C(=O)O)C(=O)O)C(=O)O

Biological target: T1, RXFP1 receptor
Assay: cell-based or functional assay

Binder | EC50 (nM), OVCAR 5 cells (cAMP) [nM] | EMax, OVCAR 5 cells (cAMP) [%]
B1 | 0.71 | 86
B2 | 0.92 | 89
B3 | 0.61 | 100
B4 | 1.04 | 96
B5 | 2.5 | 78
Ac-LEGREKVRAK(Ac)I[Aib][Aib]EG[Nle]STWS[Aib]RK[PEG12]K([γGlu-γGlu-γGlu-Stearoyl])-NH2 [peptide of SEQ ID NO: 34] | 4.73 | 95
B6 | 4.64 | 78
